{"source": "paper PMC10720262", "about": "(2023)", "binders": {"B1": {"name": "CL-510453 (antibody, V domains shown)", "VH": "QVQLVESGGGVVQPGRSLRLSCAASGFTFSSYGMHWVRQAPDKGLEWVAIIWYDGSKKYYADSVKGRFTVSRDNSKNTLYLQMNSLRAEDTAVFYCARSFDYESGGFYSFDYWGQGTLVSVSS", "VL": "DIQMTQSPSTLSASVGDRVTITCRASQSISSWLAWYQQKPGKAPKLLIYRASSLASGVPSRFSGSGSGTEFTLTISSLQPDDFATYYCQQYNSYWTFGQGTKVEFK", "modifications": "peptides N-terminally acetylated and C-terminally amidated"}, "B2": {"name": "CL-462911 (antibody, V domains shown)", "VH": "QVHLVESGGGVVQPGRSLTLSCAASGFTFSSCGMHWVRQAPGKGLEWLAVIWYDGSNKYYADSVKGRFTISRDNSKNTLYLQMNSLRAEDTAVYYCARDGGYVRDYYYGMDVWGQGTTVTVSS", "VL": "not shown", "modifications": "peptides N-terminally acetylated and C-terminally amidated"}, "B3": {"name": "CL-513279 (antibody, V domains shown)", "VH": "QVQLVESGGGVVQPGRSLRLSCAASGFTFSNFGMHWVRQAPVKGLEWVALIWYDGSNKFYADSVQGRFTISRDNSKNILYLQMNSLRAEDTAVYYCAKVEARGVDYHSYGMDVWGQGTTVTVSS", "VL": "B1 VL with K45Q, R50K, A55E, N92K, S93Y, F105I", "modifications": "peptides N-terminally acetylated and C-terminally amidated"}, "B4": {"name": "CL-510700 (antibody, V domains shown)", "VH": "QVQLVESGGGVVQPGRSLRLSCAASGFTFSDFGMHWVRQTPGKGLEWVAIIWYDGSNKFYADSVKGRFTISRDNSKNTLFLQMNSLRAEDTAVYYCARSGVYYGSGSHFDYWGQGTLVTVSS", "VL": "B1 VL with Q38L, R50K, S53N, A55E, S56T, S60L, W95L, F105I", "modifications": "peptides N-terminally acetylated and C-terminally amidated"}, "B5": {"name": "CL-510632 (antibody, V domains shown)", "VH": "QVQLVESGGGVVQPGRSLRLSCAASGFTFSNYGMHWVRQAPGKGLEWVAVIWYDGSNKFYADSVKGRFTISRDNSKNTLYLQTNSLRAEDTAVYYCARVYYYDSGNYLDYWGQGTLVAVSS", "VL": "DIQMTQSPSSVSASVGDRVTITCRASQGINNCLAWYQQKPGKAPKLLIYAASSLQSGVPSRFSGSGSGTDFTLTISNLQPEDFATYCCQQANSFPWTFGQGTKVEIK", "modifications": "peptides N-terminally acetylated and C-terminally amidated"}, "B6": {"name": "CL-441734 (antibody, V domains shown)", "VH": "QVQLVESGGGVVQPGRSLRLSCAASGFTFSSHGMHWVRQAPVKGLEWVAVIWYDGSNKYYADSVKGRFTISRDNSKNTLYLQMNSLRAEDTAVYYCARVEYSRSSGDYYYYGLDVWGQGTTVTVSS", "VL": "EIVMTQSPATLSVSPGERATLSCRASQSVSSNLAWYQQKPGQAPRLLIYGASTRATGIPARFSGSGSGTEFTLTISSLQSEDFAVYYCQQYDNWWTFGQGTKVEIK", "modifications": "peptides N-terminally acetylated and C-terminally amidated"}, "B7": {"name": "CL-447376 (antibody, V domains shown)", "VH": "QVQLVESGGGVVQPGRSLRLSCAASGFNFNNYGMHWVRQAPVMGLEWVAIIWYDGSNKFYADSVKGRFTISRDNSQNTLFLQMNSLRAEDTGIYYCARSGGEMGNFDYWGQGTLVTVSS", "VL": "DIVMTQSPLSLPVTLGQPASISCRSSQSLVYSNGDTYLDWFQLRPGQSPRRLIYKVSHRDSGVPDRFSGSGSGTEFTLRISRVEAEDVGIYYCMQGTHYWTFGQGTEVEIK", "modifications": "peptides N-terminally acetylated and C-terminally amidated"}, "B8": {"name": "CL-509177 (antibody, V domains shown)", "VH": "QVQLVESGGGVVQPGRSLRLSCAASGFSFSSYGMHWVRQTPGKGLEWVAIIWYDGSNKFYADSVKGRFIISRDNSKNTLYLQMNSLRAEDTAVYYCARDGGYSTSAGDFDYWGQGTLVTVSS", "VL": "EIVLTQSPGTLSLSPGERATLSCRASQSVSSSYLAWYQQKPGQAPRLLIYGASSRATGIPDRFSGRGSGTDFTLTISRLEPEDFAVYYCQQYVSSFTFGPGTKVDIN", "modifications": "peptides N-terminally acetylated and C-terminally amidated"}, "B9": {"name": "CL-449724 (antibody, V domains shown)", "VH": "QVHLVASGGGVVQPGRSLRLSCEVTGFTFSSYGMHWVRQDPGRGLEWVAIIWYDGSNKFYADSVKGRFTISRDNSKNTLYLQMNSLRAEDTAVYYCARSYGILTGYQTKYGMDVWGQGTTVTVSS", "VL": "not shown", "modifications": "peptides N-terminally acetylated and C-terminally amidated"}, "B10": {"name": "CL-447737 (antibody, V domains shown)", "VH": "QVQLVESGGGVVQPGRSLRLSCAASGFTFSSYGMHWVRQAPGKGLEWVAIIWFDGSNIFYEDSVKGRFTISRDNSKNTLYLQMNSLRAEDTAVYYCAKVWNYDSDYYSMDVWGQGTTVTVSS", "VL": "not shown", "modifications": "peptides N-terminally acetylated and C-terminally amidated"}, "B11": {"name": "CL-437762 (antibody, V domains shown)", "VH": "QVQLVESGGGVVQPGRSLRLSCAASGFTFSNYGMYWVRQAPGKGLEWVAVIWYDGSNKYYADSVKGRFTISRDNSKNTLYLQMNSLRAEDTAFYYCARPQYSGSGSYFDYWGQGTLVTVSS", "VL": "not shown", "modifications": "peptides N-terminally acetylated and C-terminally amidated"}, "B12": {"name": "CL-437934 (antibody, V domains shown)", "VH": "QVQLVASGGAVVQPGRSLRLSCAASGFTFSNSGMHWVRQAPGQGLEWVAIIWYDGGNKYYADSVKGRFTISRDNSKNTLYLQMNSLRAEDTAVYYCVRAYYEILTTYNKDCCYGMDVWGQGTTVTVSS", "VL": "not shown", "modifications": "peptides N-terminally acetylated and C-terminally amidated"}, "B13": {"name": "CL-509025 (antibody, V domains shown)", "VH": "QVQLVESGGGVVQPGRSLRLSCVASGFTFSDYGMHWVRQAPGKGLEWVAVIWYDGTKEFFADSVKGRFTISRDNSKDTLYLQMNSLRAEDTGIYYCATYKWNSHLDYWGQGTLVTVSS", "VL": "EIVLTQSPATLSLSPGERATLSCRASQTISSYLAWYQQKPGQAPRLLIYDASNRATGIPARFSGSGSGTDFTLTISSLEPEDFTVYYCQQRSNWPLTFGGGTKVGIK", "modifications": "peptides N-terminally acetylated and C-terminally amidated"}, "B14": {"name": "CL-511073 (antibody, V domains shown)", "VH": "QVQLVESGGGVVQPGRSLRLSCAASGFSFSSHGMHWVRQAPGKGLEWVSIIWYDGSNKFYADSVKGRFTISRDNSKNTLYLQMNSLRAEDTAVYYCARDGYDVLTGHYNWFDPWGQGTLVTVSS", "VL": "B6 VL with N32K, E70D, D92N, Q99H", "modifications": "peptides N-terminally acetylated and C-terminally amidated"}, "B15": {"name": "CL-531383 (antibody, V domains shown)", "VH": "QVQLVESGGGVVQPGRSLRLSCAASGFTFSSFGMHWVRQTPVKGLEWVALIWYDGSHKFYADSVRGRFIISRDNSKNTLFLQMNSLRAEDTAIYYCAKVINYGSGNYYNNYKYTMDVWGQGTTVTVSS", "VL": "B1 VL with L46V, R50K, A55E, S93T, F105I", "modifications": "peptides N-terminally acetylated and C-terminally amidated"}, "B16": {"name": "CL-509494 (antibody, V domains shown)", "VH": "QVQLVESGGGVVQPGRSLRLSCAASGFTFSNFGMHWVRQSPGRGLEWVAIIWYDGSHKFYADSVKGRFTISRDNSKNTLYLQMNSLRAEDTAVYYCAKSEQRTNDHYYKYGMDVWGQGTTVTVST", "VL": "B1 VL with K45T, R50K, A55E, N92T, S93N, F105I", "modifications": "peptides N-terminally acetylated and C-terminally amidated"}, "B17": {"name": "CL-510092 (antibody, V domains shown)", "VH": "QVQLVESGGGVVQPGTSLRLSCAASGFTFSNFGMYWVRQAPGKGLEWVALIWYDGSNKFYEDSVKGRFTISRDNSKNTLYLQMNSLRAEDTAVYYCAKDGGYSGPGKYGFFRHWGQGSLVTVSS", "VL": "B1 VL with M4L, S31N, R50K, A55E, S65N, Q89H, S93F, F105I", "modifications": "peptides N-terminally acetylated and C-terminally amidated"}, "B18": {"name": "CL-440324 (antibody, V domains shown)", "VH": "QVQLVESGGGVVQPGRSLRLSCAASGFTFRNHGLHWVRQAPGKGLEWVAIIWFDGSNKFYADSVKGRFTISRDNSKNTLYLQMNSLRAEDTAIYYCARVSSHDNGDYGDFDYWGQGTLVTVSS", "VL": "B1 VL with S28N, S31N, R50K, A55E, S77G, N92K, S93T, K102Q, F105I", "modifications": "peptides N-terminally acetylated and C-terminally amidated"}, "B19": {"name": "CL-464277 (antibody, V domains shown)", "VH": "B9 VH with H3Q, E23A, T25S, S30R, S31N, N57Y, I102S, Y106D, T122S", "VL": "not shown", "modifications": "peptides N-terminally acetylated and C-terminally amidated"}}, "note": "Numbering of substitutions follows the chain as printed.", "data": [{"biological_target": "PfCSP full length (Plasmodium falciparum (isolate NF54), UniProt P19597)", "sequence (P19597 20-375)": "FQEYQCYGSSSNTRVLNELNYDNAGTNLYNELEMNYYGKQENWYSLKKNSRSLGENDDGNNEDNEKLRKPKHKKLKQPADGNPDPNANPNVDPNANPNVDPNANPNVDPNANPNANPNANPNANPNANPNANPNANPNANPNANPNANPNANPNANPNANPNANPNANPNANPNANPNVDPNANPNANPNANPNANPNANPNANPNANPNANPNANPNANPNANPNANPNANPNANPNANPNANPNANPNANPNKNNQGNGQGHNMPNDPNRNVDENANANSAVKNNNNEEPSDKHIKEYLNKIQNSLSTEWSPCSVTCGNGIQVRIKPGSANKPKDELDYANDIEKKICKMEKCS", "experiment": "ELISA AUC", "values": [{"binder": "B1", "binding score": 2.07}, {"binder": "B2", "binding score": 1.4}, {"binder": "B3", "binding score": 2.06}, {"binder": "B4", "binding score": 1.9}, {"binder": "B5", "binding score": 1.9}, {"binder": "B6", "binding score": 2.3}, {"binder": "B7", "binding score": 2.5}, {"binder": "B8", "binding score": 1.17}, {"binder": "B9", "binding score": 2.5}, {"binder": "B10", "binding score": 2.4}, {"binder": "B11", "binding score": 2.5}, {"binder": "B12", "binding score": 2.4}, {"binder": "B13", "binding score": 1.64}, {"binder": "B14", "binding score": 2.15}, {"binder": "B15", "binding score": 2.64}, {"binder": "B16", "binding score": 1.93}, {"binder": "B17", "binding score": 2.38}, {"binder": "B18", "binding score": 2.6}, {"binder": "B19", "binding score": 2.5}]}]}
